Here are results for one molecule from patent US20250018038A1 (UNIVERSITY OF CHICAGO, published 2025).

Experiment [1] addresses T1, cell surface survivin on cancer cells (human, UniProt O15392 1-142).
T1 construct: whole, on cells
Put plainly: flow cytometry of live cells, 200 nM Fab, anti-human F(ab')2-A647 secondary. As to the method: Human or murine tumor cells were trypsinized, washed and resuspended in Flow buffer (1×PBS supplemented with 2% FBS) and added to a 96-well plate (#3799, Costar). 200 nM primary CPC Fab was mixed with 0.5M cells and incubated at 37 C for 20 min. […] Samples were analyzed by flow cytometry using CytoFLEX (Beckman Coulter) and mean fluorescence intensity (MFI) data was extracted using the FlowJo software (FIG. 5A-E, FIG. 6). Human peripheral blood mononuclear cells (PBMCs) derived from a single patient were used as a source of healthy human cells. PBMCs were counted, split and spun down 400×g 5 min. Cells were resuspended in Flow buffer (1×PBS supplemented with 2% FBS) and pre-incubated with TruStain FcX (1:20, Biolegend 422302) for 10 min at 37 C, followed by 200 nM primary Fab incubation at 37 for 20 min. […] Mean fluorescence intensity (MFI) data was extracted using the FlowJo software (FIG. 5F).
A general note: In flow cytometry, cells or beads pass a laser one at a time.

The target in another experiment is T2, Bor-N (Biotinylated Avi tag, held on neutravidin; not in the letters).
T2 construct: also called Bor N: 20-88; Borealin N-terminal domain; not shown: Avi tag, and any purification tag or linker
T2 chain: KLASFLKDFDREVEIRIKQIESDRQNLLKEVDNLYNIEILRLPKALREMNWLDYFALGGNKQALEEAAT
Put plainly: single point protein ELISA, 50 nM immobilised target. The protocol:
(§1) To rapidly reconfirm the binding and specificity of the obtained Fabs after reformatting into the expression vectors single-point Fab ELISA was performed (FIG. 2-3). Briefly, 50 nM Avi-tagged targets were immobilized on the prepared NAV-coated and blocked with 0.5% BSA in PBS 96-well ELISA plates. The target coated plates were washed with appropriate buffer (TBST or PBST) and were incubated with 200 nM Fab for 20 minutes and then washed. The washed plates were incubated with protein L conjugated with HRP (1:5000 diluted in TBST) for 30 minutes. Plates were washed and the reaction was developed using the TMB chromogenic substrate (Thermofisher) and subsequently quenched with 1M HCl. Absorbance was read at 450 nm on Epoch plate reader.
A general note: An ELISA detects its analyte on a solid surface through an enzyme-linked reagent.

The target of the next experiment is T3, Bor-C (Biotinylated Avi tag, held on neutravidin; not in the letters).
T3 construct: also called Bor C: 207-280; Borealin C-terminal domain; not shown: Avi tag, and any purification tag or linker
T3 chain: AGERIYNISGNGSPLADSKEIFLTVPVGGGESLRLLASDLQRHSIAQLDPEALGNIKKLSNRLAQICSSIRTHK
Described as above. The protocol: as §1

T1 sequence (O15392 whole entry): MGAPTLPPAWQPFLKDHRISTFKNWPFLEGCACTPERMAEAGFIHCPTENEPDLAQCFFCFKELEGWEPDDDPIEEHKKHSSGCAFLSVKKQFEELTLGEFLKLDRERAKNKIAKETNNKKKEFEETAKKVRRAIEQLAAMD

B1: SUR-N-45 Fab (Fab, V domains shown)
VH: EVQLVESGGGLVQPGGSLRLSCAASGFNLSSSSIHWVRQAPGKGLEWVASISSYSGYTYYADSVKGRFTISADTSKNTAYLQMNSLRAEDTAVYYCARPHWNSSYFSGWAMDYWGQGTLVTVSS
VL: DIQMTQSPSSLSASVGDRVTITCRASQSVSSAVAWYQQKPGKAPKLLIYSASSLYSGVPSRFSGSRSGTDFTLTISSLQPEDFATYYCQQWSSKSPITFGQGTKVEIKR
On to B1, for which the binding result in experiment [1] is “binds”; in the experiment with Bor-N it was “no binding (tested: 200 nM)”; with Bor-C, “no binding (tested: 200 nM)”.
